Data published in the Human Domainome abundance scans (Beltran et al. 2025).
± gives the uncertainty stated by the source.

B1: Triacylglycerol hydrolase DDHD2, residues 389 to 447; numbered along this chain, O94830 (parent)
chain: TLEEDLKKLQLSEFFDIFEKEKVDKEALALCTDRDLQEIGIPLGPRKKILNYFSTRKNS

Variants of: B1
Assay: abundance fitness (aPCA) (normalised: wild type 0, dead -1); higher = more abundant; growth selection in yeast, the domain comes from the species named
Details: Homo sapiens
In the case of Q10V, the abundance fitness is reported as -0.667 ± 0.055. Variant Q10C has an abundance fitness of -0.101 ± 0.078. With Q10R the abundance fitness was -0.247 ± 0.052. Work on Q10H yielded an abundance fitness of -0.138 ± 0.13. Work on R46A yielded an abundance fitness of 0.45 ± 0.066. R46M gave an abundance fitness of -0.431 ± 0.15. In the case of R46P, the abundance fitness is reported as -0.628 ± 0.11. Work on R46K yielded an abundance fitness of -0.338 ± 0.14. Work on R46W yielded an abundance fitness of -1.27 ± 0.17. Variant R46D has an abundance fitness of -0.242 ± 0.098. Variant R46E has an abundance fitness of -0.217 ± 0.1. In the case of R46Y, the abundance fitness is reported as -0.848 ± 0.17. With S12C the abundance fitness was -0.22 ± 0.093. With S12L the abundance fitness was -0.104 ± 0.054. Work on S12I yielded an abundance fitness of -0.012 ± 0.083. With S12P the abundance fitness was -0.301 ± 0.066. With S12H the abundance fitness was 0.052 ± 0.083. Work on S12Q yielded an abundance fitness of 0.101 ± 0.075. Work on S12G yielded an abundance fitness of -0.099 ± 0.058. In the case of S12A, the abundance fitness is reported as -0.023 ± 0.052. Variant S12Y has an abundance fitness of -0.13 ± 0.088. For V23G, the abundance fitness was -0.426 ± 0.074. V23H showed an abundance fitness of -0.376 ± 0.15. For V23L, the abundance fitness was 0.354 ± 0.067. For V23N, the abundance fitness was -0.414 ± 0.19. Work on V23S yielded an abundance fitness of -0.391 ± 0.083. For V23M, the abundance fitness was 0.773 ± 0.079. With E38M the abundance fitness was 0.033 ± 0.097. E38S gave an abundance fitness of -0.369 ± 0.07. With E38Y the abundance fitness was -0.55 ± 0.11. Variant E38F has an abundance fitness of -0.468 ± 0.093. Work on E38K yielded an abundance fitness of 0.299 ± 0.094. With E3V the abundance fitness was -0.454 ± 0.064. E3R gave an abundance fitness of -0.239 ± 0.049. With E3P the abundance fitness was -0.817 ± 0.088. In the case of E3C, the abundance fitness is reported as -0.748 ± 0.1. In the case of E3Y, the abundance fitness is reported as -0.162 ± 0.1. Variant E3K has an abundance fitness of 0.101 ± 0.081. With E3H the abundance fitness was -0.358 ± 0.11. Variant E3G has an abundance fitness of -0.591 ± 0.057. For E3L, the abundance fitness was -0.145 ± 0.058. Work on G40E yielded an abundance fitness of -0.556 ± 0.1. Work on G40H yielded an abundance fitness of -0.502 ± 0.19. In the case of G40R, the abundance fitness is reported as -0.411 ± 0.082. In the case of G40K, the abundance fitness is reported as -0.651 ± 0.16. In the case of G40C, the abundance fitness is reported as -0.573 ± 0.14. Variant G40T has an abundance fitness of -0.67 ± 0.1. In the case of G40N, the abundance fitness is reported as -0.253 ± 0.14. With G40F the abundance fitness was -0.865 ± 0.24. E19I showed an abundance fitness of 0.007 ± 0.1. E19T showed an abundance fitness of 0.023 ± 0.084. In the case of E19C, the abundance fitness is reported as -0.161 ± 0.089. In the case of L2E, the abundance fitness is reported as -0.2 ± 0.086. L2K showed an abundance fitness of -0.426 ± 0.11. Work on L2C yielded an abundance fitness of -0.621 ± 0.089. P42F showed an abundance fitness of -1.17 ± 0.32. For P42Y, the abundance fitness was -0.83 ± 0.19. Work on P42M yielded an abundance fitness of -0.649 ± 0.1. For P42T, the abundance fitness was -0.839 ± 0.11. P42N gave an abundance fitness of -0.35 ± 0.14. In the case of P42C, the abundance fitness is reported as -0.842 ± 0.17. In the case of D16E, the abundance fitness is reported as 0.075 ± 0.059. Variant D16A has an abundance fitness of 0.026 ± 0.049. Work on D16R yielded an abundance fitness of 0.049 ± 0.047. Variant D16W has an abundance fitness of -0.036 ± 0.058. D16C gave an abundance fitness of -0.084 ± 0.085. For L28P, the abundance fitness was -0.504 ± 0.12. With L28V the abundance fitness was 0.073 ± 0.07. For L28E, the abundance fitness was -0.129 ± 0.096. For D24R, the abundance fitness was -0.396 ± 0.096. With D24H the abundance fitness was -0.587 ± 0.26. In the case of D24E, the abundance fitness is reported as -0.023 ± 0.12. Work on D24I yielded an abundance fitness of -1.2 ± 0.37. Variant D24S has an abundance fitness of 0.466 ± 0.082. D24W gave an abundance fitness of -0.888 ± 0.2. With L30Y the abundance fitness was 0.164 ± 0.1. L30S showed an abundance fitness of 0.489 ± 0.058. L30A gave an abundance fitness of 0.477 ± 0.078. In the case of L30E, the abundance fitness is reported as 0.49 ± 0.09. With L30R the abundance fitness was 0.581 ± 0.061. L30P showed an abundance fitness of -0.177 ± 0.092. With L30H the abundance fitness was 0.377 ± 0.11. In the case of N58A, the abundance fitness is reported as -0.193 ± 0.097. N58M gave an abundance fitness of 0.208 ± 0.12. Variant N58Q has an abundance fitness of -0.236 ± 0.12. Variant N58C has an abundance fitness of -0.252 ± 0.15. Variant N58T has an abundance fitness of -0.049 ± 0.11. In the case of N58R, the abundance fitness is reported as -0.332 ± 0.074. E13L gave an abundance fitness of -0.608 ± 0.11. E13S gave an abundance fitness of -0.252 ± 0.1. E13G showed an abundance fitness of -0.576 ± 0.1. With E13V the abundance fitness was -0.109 ± 0.088. In the case of K7H, the abundance fitness is reported as -0.07 ± 0.16. K7E gave an abundance fitness of -0.017 ± 0.14. K7V gave an abundance fitness of -0.43 ± 0.087. K7I gave an abundance fitness of -0.741 ± 0.38. K7C showed an abundance fitness of -0.294 ± 0.2. Work on K7F yielded an abundance fitness of -0.038 ± 0.14. In the case of K7P, the abundance fitness is reported as -0.689 ± 0.11. For A29V, the abundance fitness was -0.401 ± 0.084. In the case of A29R, the abundance fitness is reported as 0.011 ± 0.064. In the case of A29P, the abundance fitness is reported as 0.03 ± 0.091. With A29T the abundance fitness was 0.032 ± 0.089. Work on A29D yielded an abundance fitness of -0.264 ± 0.12. Variant T55C has an abundance fitness of 0.041 ± 0.11. With T55H the abundance fitness was -0.146 ± 0.14. Work on T55G yielded an abundance fitness of 0.007 ± 0.054. In the case of T55A, the abundance fitness is reported as 0.058 ± 0.067. T55D showed an abundance fitness of -0.067 ± 0.086. With T55P the abundance fitness was -0.079 ± 0.1. D35N showed an abundance fitness of -0.06 ± 0.12. Variant D35W has an abundance fitness of -0.429 ± 0.1. D35R gave an abundance fitness of 0.053 ± 0.07. D35H showed an abundance fitness of 0.087 ± 0.13. With D35S the abundance fitness was -0.051 ± 0.07. Variant D35C has an abundance fitness of -0.278 ± 0.12. D35I showed an abundance fitness of -1.13 ± 0.19. P45G showed an abundance fitness of -0.168 ± 0.074. Variant P45H has an abundance fitness of -0.261 ± 0.094. For P45A, the abundance fitness was 0.615 ± 0.067. Variant P45D has an abundance fitness of 0.017 ± 0.076. In the case of P45C, the abundance fitness is reported as -0.205 ± 0.085. In the case of P45Q, the abundance fitness is reported as 0.188 ± 0.1. P45K showed an abundance fitness of -0.285 ± 0.12. P45T gave an abundance fitness of -0.031 ± 0.081. With P45S the abundance fitness was -0.032 ± 0.068. With G44E the abundance fitness was 0.574 ± 0.079. In the case of G44I, the abundance fitness is reported as 0.418 ± 0.052. G44D showed an abundance fitness of 0.342 ± 0.058. Work on G44M yielded an abundance fitness of 0.06 ± 0.069. K25F showed an abundance fitness of -0.078 ± 0.14. K25V showed an abundance fitness of 0.027 ± 0.07. In the case of K25G, the abundance fitness is reported as 0.083 ± 0.059. K25M gave an abundance fitness of 0.086 ± 0.096. Work on K25A yielded an abundance fitness of -0.05 ± 0.086. Variant K25I has an abundance fitness of -0.041 ± 0.14. T1R gave an abundance fitness of -0.331 ± 0.16. For T1G, the abundance fitness was 0.103 ± 0.13. For T1D, the abundance fitness was 0.014 ± 0.3. With F18S the abundance fitness was -0.445 ± 0.081. F18K gave an abundance fitness of -0.081 ± 0.13. In the case of F18Q, the abundance fitness is reported as -0.31 ± 0.15. F18Y gave an abundance fitness of -0.293 ± 0.12. Variant F18R has an abundance fitness of -0.685 ± 0.085. F18G showed an abundance fitness of -0.644 ± 0.082. Work on F18N yielded an abundance fitness of -0.197 ± 0.12. For F18P, the abundance fitness was -0.035 ± 0.094. L50Q showed an abundance fitness of -0.345 ± 0.11. Variant L50N has an abundance fitness of -0.483 ± 0.17. For L50W, the abundance fitness was -0.585 ± 0.1. L50M gave an abundance fitness of -0.209 ± 0.1. Variant L6E has an abundance fitness of -0.765 ± 0.12. L6D gave an abundance fitness of 0.082 ± 0.21. L6N showed an abundance fitness of -0.32 ± 0.37. With L6W the abundance fitness was -0.45 ± 0.11. Work on L6G yielded an abundance fitness of -0.698 ± 0.088. Work on L6Y yielded an abundance fitness of -0.675 ± 0.43. With L6R the abundance fitness was -0.833 ± 0.11. Variant L6Q has an abundance fitness of -0.336 ± 0.17. In the case of L6V, the abundance fitness is reported as -1.12 ± 0.11. For S59A, the abundance fitness was -0.235 ± 0.1. Work on S59G yielded an abundance fitness of -0.151 ± 0.11. With S59N the abundance fitness was -0.569 ± 0.26. Work on S59L yielded an abundance fitness of -0.473 ± 0.14. With S59F the abundance fitness was 0.03 ± 0.12. In the case of N51W, the abundance fitness is reported as -0.384 ± 0.094. For N51C, the abundance fitness was -0.323 ± 0.096.
